This assay has as its target T1, yeast ubiquitin hydrolase 1 (YUH1) (S. cerevisiae, UniProt P35127 1-236).
T1 sequence (looked up): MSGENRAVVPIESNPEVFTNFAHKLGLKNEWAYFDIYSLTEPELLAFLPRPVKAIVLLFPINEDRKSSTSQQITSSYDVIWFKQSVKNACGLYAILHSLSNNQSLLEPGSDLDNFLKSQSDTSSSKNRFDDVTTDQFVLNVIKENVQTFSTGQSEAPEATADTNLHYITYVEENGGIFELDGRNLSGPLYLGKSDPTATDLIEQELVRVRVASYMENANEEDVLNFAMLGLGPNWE
The assay can be described thus: NMR 1H-15N TROSY spectra of the complex.

B1: yeast ubiquitin (natural protein)
chain: not shown
modifications: 2H,15N-labelled
As for B1, the binding result was “binds”.
